From paper PMC6308003, “Nitric Oxide Production from Nitrite Reduction and Hydroxylamine Oxidation by Copper-containing Dissimilatory Nitrite Reductase (NirK) from the Aerobic Ammonia-oxidizing Archaeon, Nitrososphaera viennensis” (Microbes and Environments, 2018)

Experiments:
[1] = substrate: O=NO; test: purified protein; assay type: biochemical, Nitrososphaera viennensis; conditions: anoxic, 0.5 mM benzyl viologen, 0.24 mM dithionite, 20 mM phosphate pH 6.5, 25°C, labelled compound
[2] = substrate: NO; test: colorimetric NH2OH consumption; assay type: biochemical, Nitrososphaera viennensis; conditions: aerobic, dissolved O2 as oxidant, pH 7.5, 30°C
Excerpt: colorimetric NH2OH consumption on Ns. viennensis NirK

B1: Ns. viennensis NirK (Nitrososphaera viennensis EN76) (protein)
chain: APTGVTRHYTLIANEMEVQVAPDNALHPGGIKYNAMVFNGTIPGPVMASNAGDTVEITLKNEGKQIHSIDFHAAIGPSQVLSGNIAAGESKTWTFNTPNSGAFMYHCGADALNGVWEHIANGMYGAFVVHPTNEAPAKEFYVAFGEIYNSADGGLFVGANGTGSFDIMKFATEQPDLILTNGMAHRYVPAIGQSVKLDLNANATVFQVKPGELTRWYILAPGPNEGVSFHFISGQIDVRDGSFKTRNMAPVRNEETWWIPVGSASVIESVFPEEGLYVGVDHNMAHVLRGGAFAVLATNNSTADDVPPEAWVPSKAWLNEHAEMGGSMMGGSAGNNATSGGNTTSG
notes: signal peptide Met1-Ala24 removed, 6xHis tag (pCold I), E. coli BL21(DE3), Cu-reconstituted
Km [1]: 287 µM | kcat [1]: 3.1 s⁻¹ | Km [2]: 97 µM | kcat [2]: 0.039 s⁻¹
